# Results published in paper PMC7950113.
# Molecular target: protein disulfide isomerase family A member 3 [human (endogenous in HEK293 cells)]
# Assay: Co-AP mass spectrometry with TMT quantification
# Conditions: TMT intensities of interactors normalized to Tg intensities, read off a plot
row,Substance,screen value [log2]
1,"FLAG-tagged thyroglobulin, WT mutant A2234D [human] / protein disulfide isomerase family A member 3 [human (endogenous in HEK293 cells)] chain 1 A2215D",0.16
2,"FLAG-tagged thyroglobulin, WT mutant C1264R [human] / protein disulfide isomerase family A member 3 [human (endogenous in HEK293 cells)] chain 1 C1245R",0.35

# Molecular target: calnexin [human (endogenous in HEK293 cells)]
# Assay: Co-AP mass spectrometry with TMT quantification
# Conditions: TMT intensities of interactors normalized to Tg intensities, read off a plot
row,Substance,screen value [log2]
1,"FLAG-tagged thyroglobulin, WT mutant A2234D [human] / calnexin [human (endogenous in HEK293 cells)] chain 1 A2215D",-0.1
2,"FLAG-tagged thyroglobulin, WT mutant C1264R [human] / calnexin [human (endogenous in HEK293 cells)] chain 1 C1245R",-0.24
3,"FLAG-tagged thyroglobulin, WT mutant G2341R [human] / calnexin [human (endogenous in HEK293 cells)] chain 1 G2322R",0.06
4,"FLAG-tagged thyroglobulin, WT mutant L2284P [human] / calnexin [human (endogenous in HEK293 cells)] chain 1 L2265P",0.13

# Molecular target: UDP-glucose glycoprotein glucosyltansferase 1 [human (endogenous in HEK293 cells)]
# Assay: Co-AP mass spectrometry with TMT quantification
# Conditions: TMT intensities of interactors normalized to Tg intensities, read off a plot
row,Substance,screen value [log2]
1,"FLAG-tagged thyroglobulin, WT mutant A2234D [human] / UDP-glucose glycoprotein glucosyltansferase 1 [human (endogenous in HEK293 cells)] chain 1 A2215D",0.38
2,"FLAG-tagged thyroglobulin, WT mutant C1264R [human] / UDP-glucose glycoprotein glucosyltansferase 1 [human (endogenous in HEK293 cells)] chain 1 C1245R",0.25
3,"FLAG-tagged thyroglobulin, WT mutant G2341R [human] / UDP-glucose glycoprotein glucosyltansferase 1 [human (endogenous in HEK293 cells)] chain 1 G2322R",0.64
4,"FLAG-tagged thyroglobulin, WT mutant L2284P [human] / UDP-glucose glycoprotein glucosyltansferase 1 [human (endogenous in HEK293 cells)] chain 1 L2265P",0.58

# Molecular target: OS9 endoplasmic reticulum lectin [human (endogenous in HEK293 cells)]
# Assay: Co-AP mass spectrometry with TMT quantification
# Conditions: TMT intensities of interactors normalized to Tg intensities, read off a plot
row,Substance,screen value [log2]
1,"FLAG-tagged thyroglobulin, WT mutant A2234D [human] / OS9 endoplasmic reticulum lectin [human (endogenous in HEK293 cells)] chain 1 A2215D",0.83
2,"FLAG-tagged thyroglobulin, WT mutant C1264R [human] / OS9 endoplasmic reticulum lectin [human (endogenous in HEK293 cells)] chain 1 C1245R",0.39
3,"FLAG-tagged thyroglobulin, WT mutant G2341R [human] / OS9 endoplasmic reticulum lectin [human (endogenous in HEK293 cells)] chain 1 G2322R",0.73
4,"FLAG-tagged thyroglobulin, WT mutant L2284P [human] / OS9 endoplasmic reticulum lectin [human (endogenous in HEK293 cells)] chain 1 L2265P",0.57

# Molecular target: glucosidase II alpha subunit [human (endogenous in HEK293 cells)]
# Assay: Co-AP mass spectrometry with TMT quantification
# Conditions: TMT intensities of interactors normalized to Tg intensities, read off a plot
row,Substance,screen value [log2]
1,"FLAG-tagged thyroglobulin, WT mutant A2234D [human] / glucosidase II alpha subunit [human (endogenous in HEK293 cells)] chain 1 A2215D",0.2
2,"FLAG-tagged thyroglobulin, WT mutant C1264R [human] / glucosidase II alpha subunit [human (endogenous in HEK293 cells)] chain 1 C1245R",0.16
3,"FLAG-tagged thyroglobulin, WT mutant G2341R [human] / glucosidase II alpha subunit [human (endogenous in HEK293 cells)] chain 1 G2322R",0.36
4,"FLAG-tagged thyroglobulin, WT mutant L2284P [human] / glucosidase II alpha subunit [human (endogenous in HEK293 cells)] chain 1 L2265P",0.26

# Molecular target: SEL1L adaptor subunit of ERAD E3 ubiquitin ligase [human (endogenous in HEK293 cells)]
# Assay: Co-AP mass spectrometry with TMT quantification
# Conditions: TMT intensities of interactors normalized to Tg intensities, read off a plot
row,Substance,screen value [log2]
1,"FLAG-tagged thyroglobulin, WT mutant A2234D [human] / SEL1L adaptor subunit of ERAD E3 ubiquitin ligase [human (endogenous in HEK293 cells)] chain 1 A2215D",0.57
2,"FLAG-tagged thyroglobulin, WT mutant C1264R [human] / SEL1L adaptor subunit of ERAD E3 ubiquitin ligase [human (endogenous in HEK293 cells)] chain 1 C1245R",0.43
3,"FLAG-tagged thyroglobulin, WT mutant G2341R [human] / SEL1L adaptor subunit of ERAD E3 ubiquitin ligase [human (endogenous in HEK293 cells)] chain 1 G2322R",0.44
4,"FLAG-tagged thyroglobulin, WT mutant L2284P [human] / SEL1L adaptor subunit of ERAD E3 ubiquitin ligase [human (endogenous in HEK293 cells)] chain 1 L2265P",0.49

# Molecular target: ER degradation enhancing alpha-mannosidase-like 3 [human (endogenous in HEK293 cells)]
# Assay: Co-AP mass spectrometry with TMT quantification
# Conditions: TMT intensities of interactors normalized to Tg intensities, read off a plot
row,Substance,screen value [log2]
1,"FLAG-tagged thyroglobulin, WT mutant A2234D [human] / ER degradation enhancing alpha-mannosidase-like 3 [human (endogenous in HEK293 cells)] chain 1 A2215D",0.2
2,"FLAG-tagged thyroglobulin, WT mutant C1264R [human] / ER degradation enhancing alpha-mannosidase-like 3 [human (endogenous in HEK293 cells)] chain 1 C1245R",0.07
3,"FLAG-tagged thyroglobulin, WT mutant G2341R [human] / ER degradation enhancing alpha-mannosidase-like 3 [human (endogenous in HEK293 cells)] chain 1 G2322R",0.09
4,"FLAG-tagged thyroglobulin, WT mutant L2284P [human] / ER degradation enhancing alpha-mannosidase-like 3 [human (endogenous in HEK293 cells)] chain 1 L2265P",0.2

# Molecular target: oligosaccharyl transferase complex catalytic subunit B [human (endogenous in HEK293 cells)]
# Assay: Co-AP mass spectrometry with TMT quantification
# Conditions: TMT intensities of interactors normalized to Tg intensities, read off a plot
row,Substance,screen value [log2]
1,"FLAG-tagged thyroglobulin, WT mutant A2234D [human] / oligosaccharyl transferase complex catalytic subunit B [human (endogenous in HEK293 cells)] chain 1 A2215D",-0.11
2,"FLAG-tagged thyroglobulin, WT mutant C1264R [human] / oligosaccharyl transferase complex catalytic subunit B [human (endogenous in HEK293 cells)] chain 1 C1245R",-0.21
3,"FLAG-tagged thyroglobulin, WT mutant G2341R [human] / oligosaccharyl transferase complex catalytic subunit B [human (endogenous in HEK293 cells)] chain 1 G2322R",0.26
4,"FLAG-tagged thyroglobulin, WT mutant L2284P [human] / oligosaccharyl transferase complex catalytic subunit B [human (endogenous in HEK293 cells)] chain 1 L2265P",0.07
